Measured values from paper PMC4631479, “The structure of the GemC1 coiled coil and its interaction with the Geminin family of coiled-coil proteins” (Acta Crystallographica Section D: Biological Crystallography, 2015).

Molecular target: the molecule itself
Assay: SEC-MALS; Superdex 75 HR 10/30 with miniDAWN light-scattering and refractive-index detectors; 100 ul of purified tGemC1 dimer at ~2.0 mg/ml injected

B1: tGemC1^L123,130E (GemC1 coiled-coil domain variant, residues 64-146, L123E and L130E) (domain or fragment, human, UniProt A6NCL1 64-146, looked up)
chain: DSNFPLPDLCSWEEAQLSSQLYRNKQLQDTLVQKEEELARLHEENNHLRQYLNSALVKCEEEKAKKELSSDEFSKAYGKFRKG
notes: Geminin coiled-coil domain-containing protein 1 (GemC1), human, UniProt A6NCL1, residues 64-146, with L123E and L130E; codon-optimized synthetic gene; The His tag is called cleavable; also called tGemC1 homodimer; tGemC1-tGemC1; source: expressed from pETNKI-His-3CLIC-kan, purified (IMAC, size-exclusion chromatography)
stoichiometry N: 2
